Reference: US5882851A, “Cytochrome P-450 monooxygenases” (Novartis Finance Corporation, priority 1993, dated 1999)

Tests used:
[1] = target: NADPH-cytochrome P-450 oxidoreductase, purified from Sorghum bicolor (Sorghum bicolor)
cytochrome P450 = assay: Photoreversible carbon monoxide inhibition of oxime production in tropaeolum microsomes; assay type: biochemical, Tropaeolum majus; settings: 60 min
Experimental: The microsomal reaction mixture consists of 80 μl microsomes (10 mg protein per ml), 10 μl ^14 C-phenylalanine (0.5 μCi, 464 mCi/mmol, Amersham) or ^14 C-tyrosine (0.5 μCi, 450 mCi/mmol, Amersham) and 10 μl NADPH (75 mg/ml). The reaction mixtures are incubated for 1 hour at 37° C. At the end of the incubation period, the reaction mixtures are extracted with 1500 μl ethyl acetate. The ethyl acetate phase is evaporated to dryness, redissolved in a small volume and analyzed.
The microsomal reaction mixtures are incubated using different experimental conditions. The reaction mixtures are analyzed by HPLC.

[2] = target: NADPH-cytochrome P-450 oxidoreductase, purified from Sorghum bicolor (Sorghum bicolor); remark: listed apart in the source

modified cytochrome P-450TYR in which the 35 N-terminal amino acids are replaced by the nine N-terminal amino acids from bovine 17α hydroxylase, expressed in E. coli (from UniProt P05185) (enzyme)
oxime production by the enzyme reconstituted in dilaurylphosphatidylcholine micelles (turnover rate) (nmol oxime per nmol P-450TYR per minute) [1]: 349

[C-]#[O+] [CO/O2, carbon monoxide]
% inhibition of oxime production (cytochrome P450; with light (450 nm)): 23% | % inhibition of oxime production (cytochrome P450; without light): 65%

B1: cytochrome P-450TYR from Sorghum bicolor (L.) Moench (enzyme)
chain: ATMEVEAAAATVLAAPLLSSSAILKLLLFVVTLSYLARALRRPRKSTTKCSSTTCASPPAGVGNPPLPPGPVPWPVVGNLPEMLLNKPAFRWIHQMMREMGTDIACVKLGGVHVVSITCPEIAREVLRKQDANFISRPLTFASETFSGGYRNAVLSPYGDQWKKMRRVLTSEIICPSRHAWLHDKRTDEADNLTRYVYNLATKAATGDVAVDVRHVARHYCGNVIRRLMFNRRYFGEPQADGGPGPMEVLHMDAVFTSLGLLYAFCVSDYLPWLRGLDLDGHEKIVKEANVAVNRLHDTVIDDRWRQWKSGERQEMEDFLDVLITLKDAQGNPLLTIEEVKAQSQDITFAAVDNPSNAVEWALAEMVNNPEVMAKAMEELDRVVGRERLVQESDIPKLNYVKACIREAFRLHPVAPFNVPHVALADTTIAGYRVPKGSHVILSRTGLGRNPRVWDEPLRFYPDRHLATAASDVALTENDLRFISFSTGRRGCIAASLGTAMSVMLFGRLLQGFTWSKPAGVEAVDLSESKSDTFMATPLVLHAEPRLPAHLYPSISI
conversion of L-tyrosine to p-hydroxyphenyl-acetaldehyde oxime by the enzyme reconstituted in lipid micelles (turn-over number) [2]: 198 min⁻¹
